Values belong to the molecule of their own block, whether it stands above or below them.
What was measured:
[1] = molecular target: Myo4/2p (Myo4 motor - Myo2 IQ + C-tail) (S. cerevisiae) (UniProt P32492); test: cross-linking
[2] = molecular target: Myo4p-GFP (S. cerevisiae) (UniProt P32492); test: single-molecule fluorescence intensity and photobleaching
[3] = molecular target: the molecule itself; test: cross-linking
[4] = molecular target: the molecule itself; test: single-molecule fluorescence intensity and photobleaching

stoichiometry N [1]: 2
Molecule: Myo4/2p (Myo4 motor - Myo2 IQ + C-tail) (from UniProt P32492 1-778; P19524 783-1574)

stoichiometry N [2]: > 3
Molecule: Myo4p-GFP (from UniProt P32492 1-1471) (natural protein)

B1: Myo2p (TEV-eluted and actin affinity purified from Myo2p-1/2TAP) (natural protein, S. cerevisiae, UniProt P19524 1-1574, looked up)
chain: MSFEVGTRCWYPHKELGWIGAEVIKNEFNDGKYHLELQLEDDEIVSVDTKDLNNDKDQSLPLLRNPPILEATEDLTSLSYLNEPAVLHAIKQRYSQLNIYTYSGIVLIATNPFDRVDQLYTQDMIQAYAGKRRGELEPHLFAIAEEAYRLMKNDKQNQTIVVSGESGAGKTVSAKYIMRYFASVEEENSATVQHQVEMSETEQKILATNPIMEAFGNAKTTRNDNSSRFGKYLEILFDKDTSIIGARIRTYLLERSRLVYQPPIERNYHIFYQLMAGLPAQTKEELHLTDASDYFYMNQGGDTKINGIDDAKEYKITVDALTLVGITKETQHQIFKILAALLHIGNIEIKKTRNDASLSADEPNLKLACELLGIDAYNFAKWVTKKQIITRSEKIVSNLNYSQALVAKDSVAKFIYSALFDWLVENINTVLCNPAVNDQISSFIGVLDIYGFEHFEKNSFEQFCINYANEKLQQEFNQHVFKLEQEEYVKEEIEWSFIEFNDNQPCIDLIENKLGILSLLDEESRLPAGSDESWTQKLYQTLDKSPTNKVFSKPRFGQTKFIVSHYALDVAYDVEGFIEKNRDTVSDGHLEVLKASTNETLINILEGLEKAAKKLEEAKKLELEQAGSKKPGPIRTVNRKPTLGSMFKQSLIELMNTINSTNVHYIRCIKPNADKEAWQFDNLMVLSQLRACGVLETIRISCAGFPSRWTFEEFVLRYYILIPHEQWDLIFKKKETTEEDIISVVKMILDATVKDKSKYQIGNTKIFFKAGMLAYLEKLRSNKMHNSIVMIQKKIRAKYYRKQYLQISQAIKYLQNNIKGFIIRQRVNDEMKVNCATLLQAAYRGHSIRANVFSVLRTITNLQKKIRKELKQRQLKQEHEYNAAVTIQSKVRTFEPRSRFLRTKKDTVVVQSLIRRRAAQRKLKQLKADAKSVNHLKEVSYKLENKVIELTQNLASKVKENKEMTERIKELQVQVEESAKLQETLENMKKEHLIDIDNQKSKDMELQKTIENNLQSTEQTLKDAQLELEDMVKQHDELKEESKKQLEELEQTKKTLVEYQTLNGDLQNEVKSLKEEIARLQTAMSLGTVTTSVLPQTPLKDVMGGGASNFNNMMLENSDLSPNDLNLKSRSTPSSGNNHIDSLSVDRENGVNATQINEELYRLLEDTEILNQEITEGLLKGFEVPDAGVAIQLSKRDVVYPARILIIVLSEMWRFGLTKQSESFLAQVLTTIQKVVTQLKGNDLIPSGVFWLANVRELYSFVVFALNSILTEETFKNGMTDEEYKEYVSLVTELKDDFEALSYNIYNIWLKKLQKQLQKKAINAVVISESLPGFSAGETSGFLNKIFANTEEYTMDDILTFFNSIYWCMKSFHIENEVFHAVVTTLLNYVDAICFNELIMKRNFLSWKRGLQLNYNVTRLEEWCKTHGLTDGTECLQHLIQTAKLLQVRKYTIEDIDILRGICYSLTPAQLQKLISQYQVADYESPIPQEILRYVADIVKKEAALSSSGNDSKGHEHSSSIFITPETGPFTDPFSLIKTRKFDQVEAYIPAWLSLPSTKRIVDLVAQQVVQDGH
stoichiometry N [3]: 2

B2: Myo2p-GFP (natural protein, S. cerevisiae, UniProt P19524 1-1574, looked up)
chain: B1 chain
stoichiometry N [4]: 2

Source: publication PMC2064653 (The Journal of Cell Biology, 2007)
